Target: rat luteal LH/CG receptor (LH/CG-R) expressed from the cloned cDNA (expression vector pCLHR) in transiently … (rat, UniProt P16235)
Assay: 125I-CG binding to intact 293 cells transfected with the LH/CG receptor cDNA

Kd: 0.08 to 0.16 nM
B1: human choriogonadotropin, highly purified (CR-123; 12,780 IU/mg) (ligand)
chain 1: not shown
chain 2: SKEPLRPRCRPINATLAVEKEGCPVCITVNTTICAGYCPTMTRVLQGVLPALPQVVCNYRDVRFESIRLPGCPRGVNPVVSYAVALSCQCALCRRSTTDCGGPKDHPLTCDDPRFQDSSSSKAPPPSLPSPSRLPGPSDTPILPQ

From patent publication US20050042205A1 (Genentech, Inc., published 2005)
